Substitutions are numbered along the chain they refer to. Names may count otherwise. “And” between values parts separate entries of the source, which are not always exact repeats. Equal values may be shown once. Each block holds one binder with its values, some of them ahead of it.
Target: proprietary Ral effector protein (Ral-BP binding plate of the RalA G-LISA Activation Assay Kit)
Assay: ELISA; RalA G-LISA Activation Assay Kit; purified RalA incubated in the presence or absence of 15 uM GTP for 1.5 h at 25 C, then 50 ng of the RalA/GTP mixture applied to the Ral-BP binding plate (effector immobilised); n = 3

downstream effector binding (G-LISA signal): 3.24 and 3.33
B1: Flag-tagged mutant RalA (RALA c.G482A, p.Arg161Gln) (natural protein)
chain: MAANKPKGQNSLALHKVIMVGSGGVGKSALTLQFMYDEFVEDYEPTKADSYRKKVVLDGEEVQIDILDTAGQEDYAAIRDNYFRSGEGFLCVFSITEMESFAATADFREQILRVKEDENVPFLLVGNKSDLEDKRQVSVEEAKNRAEQWNVNYVETSAKTQANVDKVFFDLMREIRARKMEDSKEKNGKKKRKSLAKRIRERCCIL

downstream effector binding (G-LISA signal): 1.74
B2: Flag-tagged wild-type RalA (RALA, NM_005402) (natural protein)
chain: B1 chain with Q161R
